According to US20230140797A1 (published 2023):
Changes are numbered by the printed parent chain. Like-named read-outs stand apart in the source and are kept apart here.

How the values were obtained:
[1] = target: T1, human FcγRIIa type R extracellular domain with C-terminal His tag (human, UniProt P12318 34-217); experiment: SPR
T1 sequence (looked up): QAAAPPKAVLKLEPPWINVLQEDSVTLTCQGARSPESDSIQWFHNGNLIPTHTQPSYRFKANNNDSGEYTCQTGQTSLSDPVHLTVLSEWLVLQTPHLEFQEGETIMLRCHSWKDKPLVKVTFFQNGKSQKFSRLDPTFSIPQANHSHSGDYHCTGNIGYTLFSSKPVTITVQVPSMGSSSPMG

[2] = target: T2, human FcγRIIb extracellular domain with C-terminal His tag (human, UniProt P31994 43-217); experiment: SPR
T2 sequence (looked up): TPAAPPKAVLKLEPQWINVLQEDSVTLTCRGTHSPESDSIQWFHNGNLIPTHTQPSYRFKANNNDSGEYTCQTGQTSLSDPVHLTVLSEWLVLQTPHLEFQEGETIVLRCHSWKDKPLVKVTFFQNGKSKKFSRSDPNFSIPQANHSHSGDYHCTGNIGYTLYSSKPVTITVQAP

[3] = target: T2, human FcγRIIb extracellular domain with …; experiment: SPR; remark: listed apart in the source
[4] = target: T2, human FcγRIIb extracellular domain with …; experiment: SPR; remark: listed apart in the source
[5] = target: human FcγRIa extracellular domain with C-terminal His tag (human, UniProt P12314 16-292); experiment: SPR
Target sequence in this assay (P12314 16-292): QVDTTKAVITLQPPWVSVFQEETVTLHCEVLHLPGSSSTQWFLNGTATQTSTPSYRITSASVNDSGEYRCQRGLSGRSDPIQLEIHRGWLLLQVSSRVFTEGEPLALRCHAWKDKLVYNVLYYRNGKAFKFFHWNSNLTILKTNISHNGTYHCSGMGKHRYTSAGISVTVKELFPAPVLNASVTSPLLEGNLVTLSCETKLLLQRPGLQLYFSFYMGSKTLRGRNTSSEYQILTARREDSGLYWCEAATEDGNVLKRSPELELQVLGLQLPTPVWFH

[6] = target: T2, human FcγRIIb extracellular domain with …; experiment: SPR; remark: listed apart in the source
[7] = target: human FcγRIa extracellular domain with C-terminal His tag (human, UniProt P12314 16-292); experiment: SPR; remark: listed apart in the source
Target sequence in this assay (P12314 16-292): as above

[8] = target: T3, human FcγRIIa type R extracellular domain with C-terminal His tag (human, UniProt P12318 34-217); experiment: SPR; remark: listed apart in the source
T3 sequence (looked up): T1 sequence (looked up)

[9] = target: human FcγRIa extracellular domain with C-terminal His tag (human, UniProt P12314 16-292); experiment: SPR; remark: listed apart in the source
Target sequence in this assay (P12314 16-292): as above

[10] = target: T4, human FcγRIIa type R extracellular domain with C-terminal His tag (human, UniProt P12318 34-217); experiment: SPR Biacore, kinetic fit
T4 sequence (looked up): T1 sequence (looked up)

[11] = target: T5, human FcγRIIb extracellular domain with C-terminal His tag (human, UniProt P31994 43-217); experiment: SPR Biacore, ratio of KDs
T5 sequence (looked up): T2 sequence (looked up)

[12] = target: T6, human FcγRIIa type H extracellular domain with C-terminal His tag (human, UniProt P12318 34-217); experiment: SPR
T6 sequence (looked up): T1 sequence (looked up) with R134H

[13] = target: T7, human FcγRIIa type H extracellular domain with C-terminal His tag (human, UniProt P12318 34-217); experiment: SPR; remark: listed apart in the source
T7 sequence (looked up): T1 sequence (looked up) with R134H

[14] = target: human FcγRIIIa type V extracellular domain with C-terminal His tag (human, UniProt P08637 17-208); experiment: SPR
Target sequence in this assay (P08637 17-208 F176V): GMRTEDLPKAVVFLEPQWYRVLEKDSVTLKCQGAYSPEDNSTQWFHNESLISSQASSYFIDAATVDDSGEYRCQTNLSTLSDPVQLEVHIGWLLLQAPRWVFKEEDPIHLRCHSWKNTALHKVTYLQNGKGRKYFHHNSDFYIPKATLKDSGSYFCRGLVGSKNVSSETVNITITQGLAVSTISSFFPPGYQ

[15] = target: T8, human FcγRIIa type H extracellular domain with C-terminal His tag (human, UniProt P12318 34-217); experiment: SPR; remark: listed apart in the source
T8 sequence (looked up): T1 sequence (looked up) with R134H

[16] = target: T9, human FcγRIIb extracellular domain with C-terminal His tag (human, UniProt P31994 43-217); experiment: ratio of SPR KD values
T9 sequence (looked up): T2 sequence (looked up)

[17] = target: T9, human FcγRIIb extracellular domain with …; experiment: SPR; remark: listed apart in the source
[18] = target: human FcγRIIIa type V extracellular domain with C-terminal His tag (human, UniProt P08637 17-208); experiment: SPR; remark: listed apart in the source
Target sequence in this assay (P08637 17-208 F176V): as above

[19] = target: T10, human FcγRIIa type R (131Arg) extracellular domain with C-terminal His tag (human, UniProt P12318 34-217); experiment: SPR
T10 sequence (looked up): T1 sequence (looked up)

[20] = target: T11, human FcγRIIa type H (131His) extracellular domain with C-terminal His tag (human, UniProt P12318 34-217); experiment: SPR
T11 sequence (looked up): T1 sequence (looked up) with R134H

[21] = target: T12, human FcγRIIIa type V extracellular domain with C-terminal His tag (human, UniProt P08637 17-208); experiment: SPR; remark: listed apart in the source
T12 sequence (P08637 17-208 F176V): as above

[22] = target: T10, human FcγRIIa type R (131Arg) …; experiment: ratio of SPR KDs
[23] = target: T12, human FcγRIIIa type V extracellular …; experiment: SPR; remark: listed apart in the source
[24] = target: T13, human FcγRIIb extracellular domain with C-terminal His tag (human, UniProt P31994 43-217); experiment: ratio of SPR KDs
T13 sequence (looked up): T2 sequence (looked up)

[25] = target: T13, human FcγRIIb extracellular domain with …; experiment: ratio of SPR KDs; remark: listed apart in the source
[26] = target: T14, human FcγRIIa type H extracellular domain with C-terminal His tag (human, UniProt P12318 34-217); experiment: SPR Biacore, KD by Equation 2
T14 sequence (looked up): T1 sequence (looked up) with R134H

B1: IL6R-BP132/IL6R-L (antibody, human IgG1, kappa)
heavy: QVQLQESGPGLVKPSETLSLTCAVSGHSISHDHAWSWVRQPPGEGLEWIGFISYSGITNYNPSLQGRVTISRDNSKNTLYLQMNSLRAEDTAVYYCARSLARTTAMDYWGEGTLVTVSSASTKGPSVFPLAPSSKSTSGGTAALGCLVKDYFPEPVTVSWNSGALTSGVHTFPAVLQSSGLYSLSSVVTVPSSSLGTQTYICNVNHKPSNTKVDKKVEPKSCDKTHTCPPCPAPDLLGGDSVFLFPPKPKDTLMISRTPEVTCVVVDVSHEDPEVKFNWYVDGVEVHNAKTKPREEQYNSTYRVVSVLTVLHQDWLNGKEYKCKVSNAALPKPIEKTISKAKGQPREPQVYTLPPSRDELTKNQVSLTCLVKGFYPSDIAVEWESNGQPENNYKTTPPVLDSDGSFFLYSKLTVDKSRWQQGNVFSCSVMHEALHNHYTQESLSLSP
light: not shown
A Kd [1] of 80 µM was found for B1 in this work.

B2: IL6R-BP538/IL6R-L (antibody, human IgG1, kappa)
heavy: B1 heavy with D235E, G239D, V266I, H270E, P273G, A328K, K332R
light: not shown
With B2 the “KD (IIb) of parent polypeptide/KD (IIb) of altered polypeptide” value [2] was 507, the “KD (IIaH)/KD (IIb)” value [3] was 566 and the “KD (IIaR)/KD (IIb)” value [4] was 30.6.

B3: IL6R-BP266/IL6R-L (antibody, human IgG1, kappa)
heavy: B1 heavy with G239D, H270E, P273G, A328K, K332R
light: not shown
A Kd [5] of 1.4 µM was found for B3 in this work.

B4: BP505 (antibody, human IgG1, kappa)
heavy: B1 heavy with G239D, V266I, S269A, H270E, P273G, E274D, A328K, K332A
light: not shown
For B4, the Kd [6] was 2.1 µM, the “KD (IIaH)/KD (IIb)” value [3] was 514 and the “KD (IIaR)/KD (IIb)” value [4] was 20.

B5: IL6R-BP192/IL6R-L (antibody, human IgG1, kappa)
heavy: B1 heavy with H270D, P273G, Y298D, A328K
light: not shown
A Kd [7] of 0.0065 µM and a Kd [8] of 2.5 µM were found for B5 in this work.

B6: BP564 (antibody, human IgG1, kappa)
heavy: B1 heavy with D235E, G239D, H270E, P273G, E274D, Y298D, A328K, K332R
light: not shown
B6 was tested, and the Kd [6] was 0.0022 µM, the “KD (IIaH)/KD (IIb)” value [3] was 454 and the “KD (IIaR)/KD (IIb)” value [4] was 26.2.

B7: IL6R-BP556/IL6R-L (antibody, human IgG1, kappa)
heavy: B1 heavy with D235E, G239D, V266I, S269G, H270E, P273G, Y298D, A328K, K332R
light: not shown
In the case of B7, the Kd [9] is reported as 0.049 µM, the “KD (IIaH)/KD (IIb)” value [3] is reported as 692 and the “KD (IIaR)/KD (IIb)” value [4] is reported as 35.4.

B8: IL6R-BP120/IL6R-L (antibody, human IgG1, kappa)
heavy: B1 heavy with D235E, A328E, K332A
light: not shown
In the case of B8, the Kd [10] is reported as 5.6 µM and the “KD (IIb) of the parent polypeptide/KD (IIb) of the altered polypeptide” value (from here on “KD (IIb) of the parent polypeptide/KD”) [11] is reported as 3 fold (parent IL6R-B3/IL6R-L).

B9: IL6R-BP181/IL6R-L (antibody, human IgG1, kappa)
heavy: B1 heavy with P273G
light: not shown
A Kd [12] of 28 µM was found for B9 in this work.

B10: BP549 (antibody, human IgG1, kappa)
heavy: B1 heavy with D235E, G239D, S269G, H270E, P273G, A328K, K332R
light: not shown
For B10, the Kd [9] was 1.8 µM, the “KD (IIaH)/KD (IIb)” value [3] was 696 and the “KD (IIaR)/KD (IIb)” value [4] was 35.9.

B11: IL6R-BP540/IL6R-L (antibody, human IgG1, kappa)
heavy: B1 heavy with D235E, G239D, V266I, H270E, P273G, E274P, Y298D, A328K, K332R
light: not shown
In the case of B11, the Kd [13] is reported as 4.8 µM, the “KD (IIaH)/KD (IIb)” value [3] is reported as 803 and the “KD (IIaR)/KD (IIb)” value [4] is reported as 36.8.

B12: IL6R-BP199/IL6R-L (antibody, human IgG1, kappa)
heavy: B1 heavy with K332R
light: not shown
For B12, the Kd [14] was 61 µM, the Kd [15] was 28 µM and the “KD (IIb) of the parent polypeptide/KD” value [16] was 6.3 fold. For the same binder, the Kd [7] was 0.0064 µM and the Kd [17] was 0.49 µM.

B13: IL6R-BP179/IL6R-L (antibody, human IgG1, kappa)
heavy: B1 heavy with D235E, G239D, P273G
light: not shown
A Kd [12] of 18 µM was found for B13 in this work.

B14: IL6R-BP176/IL6R-L (antibody, human IgG1, kappa)
heavy: B1 heavy with A328D
light: not shown
A Kd [18] of 0.054 µM was found for B14 in this work.

B15: IL6R-BP497/IL6R-L (antibody, human IgG1, kappa)
heavy: B1 heavy with G239D, V266I, S269A, H270E, P273G, A328K, A329G, K332R
light: not shown
A Kd [19] of 0.035 µM, a Kd [20] of 0.85 µM and a Kd [21] of 20 µM were found for B15 in this work. The “KD (IIaR) of parent polypeptide/KD (IIaR) of altered polypeptide” value [22] was 12.9.

B16: IL6R-BP149/IL6R-L (antibody, human IgG1, kappa)
heavy: B1 heavy with L236Y, G239D, Y298D
light: not shown
A Kd [1] of 14 µM was found for B16 in this work.

B17: IL6R-BP119/IL6R-L (antibody, human IgG1, kappa)
heavy: B1 heavy with D235E, A328M, K332A
light: not shown
In the case of B17, the Kd [10] is reported as 0.099 µM and the “KD (IIb) of the parent polypeptide/KD” value [11] is reported as 2.7 fold (parent IL6R-B3/IL6R-L).

B18: IL6R-BP253/IL6R-L (antibody, human IgG1, kappa)
heavy: B1 heavy with D235E, D240P, S269E, A328K, L330F, K332A
light: not shown
A Kd [23] of 3.8 µM was found for B18 in this work.

B19: IL6R-BP535/IL6R-L (antibody, human IgG1, kappa)
heavy: B1 heavy with G239D, V266I, S269G, H270E, P273G, Y298D, A328K, A329G, K332R, P398M
light: not shown
A Kd [9] of 0.0011 µM was found for B19 in this work.

B20: IL6R-BP498/IL6R-L (antibody, human IgG1, kappa)
heavy: B1 heavy with G239D, V266I, S269A, H270E, P273G, A328K, K332R, P398L
light: not shown
In the case of B20, the “KD (IIaR)/KD (IIb)” value [24] is reported as 30.3 and the “KD (IIb) of parent polypeptide/KD (IIb) of altered polypeptide” value [25] is reported as 1870.

B21: IL6R-2B171/IL6R-L (antibody, human IgG1, kappa)
heavy: B1 heavy with D235E, V325L, A328K, K332A
light: not shown
B21 was tested, and the Kd [26] was 340 µM and the “KD (IIb) of the parent polypeptide/KD” value [11] was 2.9 fold (parent IL6R-B3/IL6R-L).

B22: IL6R-BP107/IL6R-L (antibody, human IgG1, kappa)
heavy: B1 heavy with D235E, H270E, A328K, K332A
light: not shown
In the case of B22, the Kd [26] is reported as 32 µM and the “KD (IIb) of the parent polypeptide/KD” value [11] is reported as 3.3 fold (parent IL6R-B3/IL6R-L).

B23: IL6R-BP133/IL6R-L (antibody, human IgG1, kappa)
heavy: B1 heavy with L236Y, A328K
light: not shown
A Kd [18] of 69 µM was found for B23 in this work.

B24: IL6R-BP269/IL6R-L (antibody, human IgG1, kappa)
heavy: B1 heavy with D235E, G239D, H270E, P273G, Y298D, A328K, K332A
light: not shown
A Kd [5] of 1.4 µM was found for B24 in this work.

B25: IL6R-BP198/IL6R-L (antibody, human IgG1, kappa)
heavy: B1 heavy with L236Y, H270D, P273G
light: not shown
With B25 the “KD (IIb) of the parent polypeptide/KD” value [16] was 15.7 fold.
